Data as given in FireProtDB (doi:10.1021/bi972279a).

Settings: Saccharomyces cerevisiae (strain ATCC 204508 / S288c), pH 4.6, Thermal, CD, acetate 100 mM, reversible: yes; for ddG of mutation (higher = less stable) / heat capacity change of unfolding / unfolding free energy: 25 °C

Chain of Cytochrome c isoform 1 P82S, P00044 (P00044 whole entry P82S, canonical isoform): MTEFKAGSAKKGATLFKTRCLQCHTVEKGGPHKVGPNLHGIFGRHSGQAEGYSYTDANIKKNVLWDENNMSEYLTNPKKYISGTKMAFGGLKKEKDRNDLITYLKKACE
Chain of Cytochrome c isoform 1 wild type, P00044 (P00044 whole entry, canonical isoform): as the sequence (P00044 whole entry P82S, canonical isoform) above, with S82P counted along it
Chain of Cytochrome c isoform 1 P82W, P00044 (P00044 whole entry P82W, canonical isoform): as the sequence (P00044 whole entry P82S, canonical isoform) above, with S82W counted along it
Chain of Cytochrome c isoform 1 P82R, P00044 (P00044 whole entry P82R, canonical isoform): as the sequence (P00044 whole entry P82S, canonical isoform) above, with S82R counted along it
Chain of Cytochrome c isoform 1 P82G, P00044 (P00044 whole entry P82G, canonical isoform): as the sequence (P00044 whole entry P82S, canonical isoform) above, with S82G counted along it
Chain of Cytochrome c isoform 1 P82V, P00044 (P00044 whole entry P82V, canonical isoform): as the sequence (P00044 whole entry P82S, canonical isoform) above, with S82V counted along it
Chain of Cytochrome c isoform 1 P82Y, P00044 (P00044 whole entry P82Y, canonical isoform): as the sequence (P00044 whole entry P82S, canonical isoform) above, with S82Y counted along it
Chain of Cytochrome c isoform 1 P82L, P00044 (P00044 whole entry P82L, canonical isoform): as the sequence (P00044 whole entry P82S, canonical isoform) above, with S82L counted along it

Substance	ddG of mutation (higher = less stable) (structure 1YCC)	heat capacity change of unfolding (structure 1YCC)	unfolding free energy (structure 1YCC)	Tm (structure 1YCC)	change of melting temperature, mutant - wild type (higher = more stable) (structure 1YCC)	heat capacity change of unfolding	unfolding free energy	Tm
Cytochrome c isoform 1 P82G, P00044	0.78 kcal/mol	1.37 kcal/mol/K	4.3 kcal/mol	48.5 °C	-5 °C			
Cytochrome c isoform 1 P82L, P00044				48.6 °C	-4.9 °C			
Cytochrome c isoform 1 P82R, P00044	0.97 kcal/mol	1.37 kcal/mol/K	4.11 kcal/mol	48.6 °C	-4.9 °C			
Cytochrome c isoform 1 P82S, P00044	1.89 kcal/mol	1.37 kcal/mol/K	3.19 kcal/mol	47.8 °C	-5.7 °C			
Cytochrome c isoform 1 P82V, P00044	1.07 kcal/mol	1.37 kcal/mol/K	4.01 kcal/mol	48.3 °C	-5.2 °C			
Cytochrome c isoform 1 P82W, P00044	2.38 kcal/mol	1.37 kcal/mol/K	2.7 kcal/mol	47 °C	-6.5 °C			
Cytochrome c isoform 1 P82Y, P00044	2.07 kcal/mol	1.37 kcal/mol/K	3.01 kcal/mol	46.7 °C	-6.8 °C			
Cytochrome c isoform 1 wild type, P00044						1.37 kcal/mol/K	5.08 kcal/mol	53.5 °C
